Read-outs that look alike come from different tables or passages of the source.
B1: fp.009 (antibody, V domains shown)
VH: VQLVESGGGVVQPGTSLTLSCEASGFTFSNYAMHWVRQAPGKGLEWVAIISFDTRNKKFAGSVQGRFSISRDNAKNSIYLQMNNLRPEDTGIYYCARDVFLSDYDSRGFDRTRGGFDYWGQGTLVTVSS
VL: EIVMTQSPATLSVSPGEKATLSCRASESVGSSLAWYQQKLGQAPRLLIYGASTRATGIPARFSGSGSGAEFTLTISSLQSEDFAIYYCQQYGDWPLLTFGGGTKVEIK
B2: fp.006 monoclonal antibody (IgG) (antibody, V domains shown)
VH: EVQLVESGGGVVQPGGSLRLSCAASGFNFNNYALHWVRQAPGKGLEWVAIISYEARNKKYGVSVMGRFSISRDNSKSIMYLEMNSLRVEDTGVYYCARDLFLSDYDRSGYDPTRGGFDHWGQGTLVTVSS
VL: EIVMTQSPATLSVSPGERATLSCRASQSVSSSLAWYQHRFGQAPRLLISGASTRATGIPGRFSGSGSGTEFTLTISSLQSEDVAVYYCQQYGDWPLVTFGGGTKVEIK
B3: hr2.016 monoclonal antibody (IgG) (antibody, V domains shown)
VH: EVQLLESGGGLVQPGGSLRLSCAASGFMFSKYAMTWVRQTPGKGLEWVSVISGGGGSTYYADSVKGRFTISRDNSKNTLYLQMNSLRAEDTAVYYCAKLLVVFVIDYWGQGALVTVSS
VL: EIVLTQSPGTLSLSPGERATLFCRASQSVSSNLAWYQQKPGRAPRLLISGASSRATGIPDRFSGSGSGTDFTLTISRLEPEDFAVYYCQQYGSSPPTFGQGTKVEIK
B4: sd1.040 monoclonal antibody (IgG) (antibody, V domains shown)
VH: QVQLVQSGAEVKKPGASVKVSCKASGYTFTSFYIHWVRQAPGQGLEWMGIIDPSGGSTSYPQKFQGRVTMTRDTSTSTVYMDLSSLRSEDTAVYYCTRDGSAGDNSWFDPWGQGTLVTVSS
VL: not shown
B5: fp.006 Fab (Fab, V domains shown)
VH: EVQLVESGGGVVQPGGSLRLSCAASGFNFNNYALHWVRQAPGKGLEWVAIISYEARNKKYGVSVMGRFSISRDNSKSIMYLEMNSLRVEDTGVYYCARDLFLSDYDRSGYDPTRGGFDHWGQGTLVTVSS
VL: EIVMTQSPATLSVSPGERATLSCRASQSVSSSLAWYQHRFGQAPRLLISGASTRATGIPGRFSGSGSGTEFTLTISSLQSEDVAVYYCQQYGDWPLVTFGGGTKVEIK
B6: hr2.023 monoclonal antibody (IgG) (antibody, V domains shown)
VH: QVQLVQSGAEVKKPGASVKVSCRASENIFSDSYLHWVRQAPGQGLEWMGIITPSGDKTFYAQQFQGRLTMTRDTPTNTLHMDLRGLTSADTAIYYCARQATKGGWDYWGQGTLVTVSS
VL: EIVLTQSPGTLSLSPGESATLSCRASQSVTRNYLAWYQQQPGQAPRLLIYGASNRATGVPDRFSGSGSGTDFTLTISRLEPEDFAVYYCQQYGSSPPTFIFGPGTKVDIK
B7: fp.007 monoclonal antibody (IgG) (antibody, V domains shown)
VH: EVQLVESGGGLVKPGGSLRLSCAGTGFIFSDAWMTWVRQAPGKGLEWVGRIKSKADGGTTDYAAPVKGRFTISRDDSKNTLYLEINSLKTEDTAVYYCTTGRSRYCIGAVCYYFDHWGQGTLVTVSS
VL: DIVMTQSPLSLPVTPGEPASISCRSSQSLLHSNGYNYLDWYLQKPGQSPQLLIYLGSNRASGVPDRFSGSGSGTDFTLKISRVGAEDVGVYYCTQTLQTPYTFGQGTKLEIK
B8: sd1.040 Fab (Fab, V domains shown)
VH: QVQLVQSGAEVKKPGASVKVSCKASGYTFTSFYIHWVRQAPGQGLEWMGIIDPSGGSTSYPQKFQGRVTMTRDTSTSTVYMDLSSLRSEDTAVYYCTRDGSAGDNSWFDPWGQGTLVTVSS
VL: not shown

What was measured:
[1] = target: T1, SARS-CoV-2 fusion peptide (FP) coldspot peptide, 812-831 (SARS-CoV-2 (ancestral), biotin-Ahx at the N-terminus; C-terminal amidation)
[2] = target: SARS-CoV-2 S-2P ectodomain trimer (ancestral) (SARS-CoV-2 (ancestral, MN908947), stabilised)
[3] = target: T2, SARS-CoV-2 S (ancestral), C-terminally truncated, expressed on 293T cells (SARS-CoV-2 (ancestral, Wuhan-Hu-1), UniProt P0DTC2); assay: flow cytometry on cells; conditions: one partner purified
[4] = target: T2, SARS-CoV-2 S (ancestral), C-terminally …; assay: cell-based or functional assay
[5] = target: T1, SARS-CoV-2 fusion peptide (FP) coldspot …; assay: crystal structure; conditions: both partners purified
[6] = target: SD1-RBD of SARS-CoV-2 S (ancestral), aa 319-591 (SARS-CoV-2, ancestral (Wuhan-Hu-1; …, UniProt P0DTC2); assay: SPR; conditions: both partners purified

Binder | fold increase of binding (gMFI) with soluble ACE2 [3] [fold] | IC50 of neutralisation of SARS-CoV-2 pseudovirus [4] [µg/mL] | other results
B1 |  |  | binding result [1]: binds; binding result [2]: binds
B2 | 5.8 | 0.737 | 
B3 | 2.3 | 0.01 | 
B4 |  | 0.245 | 
B5 |  |  | binding result [5]: binds
B6 | 2.4 |  | 
B7 |  |  | binding result [3]: binds
B8 |  |  | Kd [6]: 4.2 nM

Source: PMC9972897 (Science immunology, 2023)
